B1: Dipeptidyl peptidase 4 (Homo sapiens), P27487 (parent)
chain: MKTPWKVLLGLLGAAALVTIITVPVVLLNKGTDDATADSRKTYTLTDYLKNTYRLKLYSLRWISDHEYLYKQENNILVFNAEYGNSSVFLENSTFDEFGHSINDYSISPDGQFILLEYNYVKQWRHSYTASYDIYDLNKRQLITEERIPNNTQWVTWSPVGHKLAYVWNNDIYVKIEPNLPSYRITWTGKEDIIYNGITDWVYEEEVFSAYSALWWSPNGTFLAYAQFNDTEVPLIEYSFYSDESLQYPKTVRVPYPKAGAVNPTVKFFVVNTDSLSSVTNATSIQITAPASMLIGDHYLCDVTWATQERISLQWLRRIQNYSVMDICDYDESSGRWNCLVARQHIEMSTTGWVGRFRPSEPHFTLDGNSFYKIISNEEGYRHICYFQIDKKDCTFITKGTWEVIGIEALTSDYLYYISNEYKGMPGGRNLYKIQLSDYTKVTCLSCELNPERCQYYSVSFSKEAKYYQLRCSGPGLPLYTLHSSVNDKGLRVLEDNSALDKMLQNVQMPSKKLDFIILNETKFWYQMILPPHFDKSKKYPLLLDVYAGPCSQKADTVFRLNWATYLASTENIIVASFDGRGSGYQGDKIMHAINRRLGTFEVEDQIEAARQFSKMGFVDNKRIAIWGWSYGGYVTSMVLGSGSGVFKCGIAVAPVSRWEYYDSVYTERYMGLPTPEDNLDHYRNSTVMSRAENFKQVEYLLIHGTADDNVHFQQSAQISKALVDVGVDFQAMWYTDEDHGIASSTAHQHIYTHMSHFIKQCFSLP
partner: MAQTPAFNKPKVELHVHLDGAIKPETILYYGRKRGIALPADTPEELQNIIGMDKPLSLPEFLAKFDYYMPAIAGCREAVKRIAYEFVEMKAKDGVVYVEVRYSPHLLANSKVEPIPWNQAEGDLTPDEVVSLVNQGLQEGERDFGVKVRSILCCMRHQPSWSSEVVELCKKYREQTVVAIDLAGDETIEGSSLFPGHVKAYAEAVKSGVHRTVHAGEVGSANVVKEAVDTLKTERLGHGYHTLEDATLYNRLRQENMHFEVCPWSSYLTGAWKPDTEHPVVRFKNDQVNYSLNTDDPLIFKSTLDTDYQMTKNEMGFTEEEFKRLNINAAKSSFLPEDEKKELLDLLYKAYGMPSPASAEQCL

Variants of B1 are the subject of one experiment. The conditions noted are these: with ada_bovin ADA.
In the case of Y238A, the “effect of a mutation on the interaction” value was “decreasing interaction”.

Another experiment covers variants of B1. The conditions noted are these: with ada_bovin ADA. The source holds these as a separate data set.
Consider Y248A, for which the “effect of a mutation on the interaction” value is given as “decreasing interaction”.

The variants in another experiment derive from B1. To be noted: with ada_bovin ADA. The source holds these as a separate data set.
Take Y256A: the “effect of a mutation on the interaction” value was “decreasing interaction”.

The values above are taken from IntAct's records for PubMed 22001206.
